Source: patent US20220016245A1, “CONJUGATE OF BIOTIN-MODIFIED DIMER AND PHTHALOCYANINE DYE” (The University of Tokyo, priority 2018, published 2022)
Blank lines part the entries; values can stand above or below the molecule they belong to.

Experiments:
[1] = target: T1, Recombinant Human CEACAM-5/CD66e Protein, CF (R & D SYSTEMS) (human, UniProt P06731 35-685); test: SPR, Biacore T200; CEACAM5 immobilized by amine coupling (279 RU), CEA-V2122 as analyte, single-cycle kinetics, bivalent analysis fit (KD = kd1/ka1)
T1 construct: Bought protein, immobilized on the sensor chip by amine coupling
T1 sequence (looked up): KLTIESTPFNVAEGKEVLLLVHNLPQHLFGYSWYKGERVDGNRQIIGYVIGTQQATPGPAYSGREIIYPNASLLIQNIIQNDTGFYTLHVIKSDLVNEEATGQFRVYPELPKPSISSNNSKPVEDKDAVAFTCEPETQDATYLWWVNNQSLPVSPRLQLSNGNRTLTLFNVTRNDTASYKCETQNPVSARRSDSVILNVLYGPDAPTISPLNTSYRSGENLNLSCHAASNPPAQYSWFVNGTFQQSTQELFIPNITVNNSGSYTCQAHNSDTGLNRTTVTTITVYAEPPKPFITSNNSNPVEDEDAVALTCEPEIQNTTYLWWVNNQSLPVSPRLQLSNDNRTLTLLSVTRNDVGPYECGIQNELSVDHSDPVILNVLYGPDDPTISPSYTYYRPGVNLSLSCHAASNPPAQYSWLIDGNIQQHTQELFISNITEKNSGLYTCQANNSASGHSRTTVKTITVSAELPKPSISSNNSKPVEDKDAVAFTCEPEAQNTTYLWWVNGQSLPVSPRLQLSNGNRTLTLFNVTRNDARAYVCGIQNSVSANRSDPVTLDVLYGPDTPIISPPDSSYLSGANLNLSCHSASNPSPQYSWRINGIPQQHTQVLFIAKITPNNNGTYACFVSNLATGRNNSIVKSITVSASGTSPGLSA

[2] = target: T2, Recombinant Human CEACAM-5/CD66e Protein (Homo sapiens, UniProt P06731); test: SPR (Biacore T200) affinity of CEA-V2122 for antigen CEACAM5; assay type: binding
T2 construct: purchased R & D SYSTEMS
T2 sequence (P06731 35-676): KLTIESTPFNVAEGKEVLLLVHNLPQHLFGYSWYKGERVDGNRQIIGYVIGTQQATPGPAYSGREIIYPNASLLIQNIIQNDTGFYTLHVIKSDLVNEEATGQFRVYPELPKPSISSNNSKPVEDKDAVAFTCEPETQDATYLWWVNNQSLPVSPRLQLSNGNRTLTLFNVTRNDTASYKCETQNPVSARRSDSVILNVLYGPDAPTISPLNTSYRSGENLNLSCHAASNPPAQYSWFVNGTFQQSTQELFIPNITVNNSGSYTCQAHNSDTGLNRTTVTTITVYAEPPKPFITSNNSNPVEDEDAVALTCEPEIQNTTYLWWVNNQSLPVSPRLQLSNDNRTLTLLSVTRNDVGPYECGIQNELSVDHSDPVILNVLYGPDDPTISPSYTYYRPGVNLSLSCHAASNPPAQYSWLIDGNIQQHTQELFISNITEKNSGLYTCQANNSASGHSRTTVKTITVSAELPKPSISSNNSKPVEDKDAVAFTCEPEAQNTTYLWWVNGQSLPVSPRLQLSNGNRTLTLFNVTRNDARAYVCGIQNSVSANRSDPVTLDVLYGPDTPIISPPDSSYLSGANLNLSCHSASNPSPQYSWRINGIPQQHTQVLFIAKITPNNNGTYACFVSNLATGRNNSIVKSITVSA

CEACAM5 = target: T3, CEACAM5 (Homo sapiens, UniProt P06731); test: cell staining of CEACAM5-expressing cell line using FITC-labeled CEA-V2122; assay type: cell-based
T3 construct: endogenous in cells; host or cells: MKN-45 (CEACAM5-positive); DLD1 (CEACAM5-negative control)
T3 sequence (P06731 35-676): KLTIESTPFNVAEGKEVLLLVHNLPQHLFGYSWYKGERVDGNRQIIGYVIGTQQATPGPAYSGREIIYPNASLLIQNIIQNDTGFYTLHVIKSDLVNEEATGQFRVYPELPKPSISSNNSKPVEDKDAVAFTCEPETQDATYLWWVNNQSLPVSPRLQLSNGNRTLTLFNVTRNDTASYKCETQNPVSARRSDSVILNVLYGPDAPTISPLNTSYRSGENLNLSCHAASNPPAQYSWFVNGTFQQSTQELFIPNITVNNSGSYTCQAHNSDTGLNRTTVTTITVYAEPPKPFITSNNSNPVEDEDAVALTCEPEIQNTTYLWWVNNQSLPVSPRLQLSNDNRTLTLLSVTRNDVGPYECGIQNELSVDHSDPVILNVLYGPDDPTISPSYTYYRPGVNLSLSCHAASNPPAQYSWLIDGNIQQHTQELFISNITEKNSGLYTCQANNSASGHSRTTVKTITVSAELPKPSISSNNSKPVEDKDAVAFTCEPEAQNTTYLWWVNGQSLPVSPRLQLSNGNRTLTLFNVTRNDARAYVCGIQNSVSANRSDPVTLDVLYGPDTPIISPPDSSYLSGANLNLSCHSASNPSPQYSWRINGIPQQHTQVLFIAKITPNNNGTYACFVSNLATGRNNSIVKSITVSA
Description: In order to stain a CEACAM5 expression-positive cancer cell line, FITC labeling was carried out on the cell line, using 100 μg of a purified CEA-V2122 protein. Specifically, labeling was carried out using Fluorescein Labeling Kit—NH2 (DOJINDO LABORATORIES) in accordance with the protocol and amount described in the operating manual included with the kit, and the obtained product was defined to be CEA-V2122-FITC. Specific staining of the CEACAM5 expression-positive cancer cell line is as follows. That is, CEACAM5-positive human stomach cancer-derived MKN-45 cells and CEACAM5-negative human colon cancer-derived DLD1 cells were each seeded on a CELLSTAR, μClear, 96-well plate (Greiner) to a cell density of 2.0×10^4 cells/well, and thereafter, the cells were cultured overnight. Subsequently, a culture solution containing 20 nM CEA-V2122-FITC and 1 μM Hoechist was added to the 96-well plate to a concentration of 100 μL/well, and the obtained mixture was then reacted at 4° C. for 30 minutes. Thereafter, each image was taken using In Cell Analyzer 6000 (GE Healthcare Life Sciences).

[3] = single-cycle kinetics, bivalent analysis mode

Kd [1]: 1.08 pM
B1: CEA-V2122 (scFv)
chain: QVKLEQSGAEVVKPGASVKLSCKASGFNIKDSYMHWLRQGPGQRLEWIGWIDPENGDTEYAPKFQGKATFTTDTSANTAYLGLSSLRPEDTAVYYCNEGTPTGPYYFDYWGQGTLVTVSSGGGGSGGGGSGGGGSENVLTQSPSSMSVSVGDRVNIACSASSSVPYMHWLQQKPGKSPKLLIYLTSNLASGVPSRFSGSGSGTDYSLTISSVQPEDAATYYCQQRSSYPLTFGGGTKLEIKGGGGSGGGGAEAGITGTWSDQLGDTFIVTAGADGALTGTYENAVGGAESRYVLTGRYDSAPATDGSGTALGWTVAWKNNSKNAHSATTWSGQYVGGADAKINTQWLLTSGTTNANAWKSTLVGHDTFTKVKPSAASHHHHHH
notes: Fusion of an anti-CEACAM5 scFv and mutant streptavidin V2122; also called CEA-Cupid; scFv-V2122

KD=kd1/ka1 ([2]; bivalent analysis): 1.078E−12
binding to CEACAM5 (FIG. 5) ([2]; from the KD value in the sensorgram): strongly binds to CEACAM5
ka1 [2, 3]: 3.208E+5
kd1 [2, 3]: 3.461E−7
B2: CEA-V2122: scFv-type anti-CEACAM5 antibody bound with mutant streptavidin V2122 via an amino acid linker, SEQ ID NO: 14 (protein)
chain: QVKLEQSGAEVVKPGASVKLSCKASGFNIKDSYMHWLRQGPGQRLEWIGWIDPENGDTEYAPKFQGKATFTTDTSANTAYLGLSSLRPEDTAVYYCNEGTPTGPYYFDYWGQGTLVTVSSGGGGSGGGGSGGGGSENVLTQSPSSMSVSVGDRVNIACSASSSVPYMHWLQQKPGKSPKLLIYLTSNLASGVPSRFSGSGSGTDYSLTISSVQPEDAATYYCQQRSSYPLTFGGGTKLEIKGGGGSGGGGAEAGITGTWSDQLGDTFIVTAGADGALTGTYENAVGGAESRYVLTGRYDSAPATDGSGTALGWTVAWKNNSKNAHSATTWSGQYVGGADAKINTQWLLTSGTTNANAWKSTLVGHDTFTKVKPSAASHHHHHH

B3: CEA-V2122-FITC: purified CEA-V2122 protein labeled with Fluorescein Labeling Kit—NH2 (conjugate)
chain: QVKLEQSGAEVVKPGASVKLSCKASGFNIKDSYMHWLRQGPGQRLEWIGWIDPENGDTEYAPKFQGKATFTTDTSANTAYLGLSSLRPEDTAVYYCNEGTPTGPYYFDYWGQGTLVTVSSGGGGSGGGGSGGGGSENVLTQSPSSMSVSVGDRVNIACSASSSVPYMHWLQQKPGKSPKLLIYLTSNLASGVPSRFSGSGSGTDYSLTISSVQPEDAATYYCQQRSSYPLTFGGGTKLEIKGGGGSGGGGAEAGITGTWSDQLGDTFIVTAGADGALTGTYENAVGGAESRYVLTGRYDSAPATDGSGTALGWTVAWKNNSKNAHSATTWSGQYVGGADAKINTQWLLTSGTTNANAWKSTLVGHDTFTKVKPSAASHHHHHH
recognition of CEACAM5 on cells (FIG. 7) (CEACAM5; 20 nM, 4° C. 30 minutes, CEACAM5-positive MKN-45 vs CEACAM5-negative DLD1 cells): specifically recognizes CEACAM5 on the surface of the cell membrane
localisation of CEACAM5 after binding (FIG. 8) (CEACAM5; time-series images of MKN45 cells): the CEACAM5 stays on the surface of the cell membrane
